Data reported in the DeepSol protein solubility set.

Assay: soluble on expression in E. coli; label from the status in PepcDB or PDB records

Sequence | soluble on expression in E. coli
MGSDKIHHHHHHMRINPGEITKVLEEKIKSFEEKIDLEDTGKVIQVGDGIARAYGLNKVMVSELVEFVETGVKGVAFNLEEDNVGIIILGEYKDIKEGHTVRRLKRIIEVPVGEELLGRVVNPLGEPLDGKGPINAKNFRPIEIKAPGVIYRKPVDTPLQTGIKAIDSMIPIGRGQRELIIGDRQTGKTAIAIDTIINQKGQGVYCIYVAIGQKKSAIARIIDKLRQYGAMEYTTVVVASASDPASLQYIAPYAGCAMGEYFAYSGRDALVVYDDLSKHAVAYRQLSLLMRRPPGREAYPGDIFYLHSRLLERAVRLNDKLGGGSLTALPIVETQANDISAYIPTNVISITDGQIYLEPGLFYAGQRPAINVGLSVSRVGGSAQIKAMKQVAGMLRIDLAQYRELETFAQFATELDPATRAQIIRGQRLMELLKQEQYSPMPVEEQVVVLFAGVRGYLDDLPVEEVRRFEKEFLRFMHEKHQDILDDIKTKKELTSETEEKLKKAIEEFKTTFRV | not soluble
MGSDKIHHHHHHMRKERDYLGKLEIEGEVYYGIHTKRALMNFPSTGEKLDETFIWAYFMVKKACALLNTELGYLDERTGNAIVKACDEWEDLKKHVVVDPLSGGAGTSINMNVNEVIANRATEILGGKKGEYLVDPIDHVNLHQSTNDTFPTSAKIATIVKLRRLIDEVINLQEKIQEKEKEFYSIRKPGRTQLMDGPPIMLGQEFGAFADALARDRWRLYKVEERIRSVNIGGTAIGTGVGAPKDYILKIVEKVREVTKVKIAKAENLIDATQNWDVFAEVHGLLKSLAVNLYKISNDIRLLGSGPNTVIGELILPAVQAGSSIMPGKINPVVSEYVMQICHMVFGHDMILNHACALGNLELNQFAPLIVHLTLKSLTLLTNACRSLASYISKIKANNERCEEHLRRSVSNLTPLIKLFGYEAVSEAIKKANWDIKKAVEILSQEKNIPVEEILKVLNLKKMTGLGYSL | not soluble
MGSDKIHHHHHHMRKKSLTLLSDGYLFRKENTIYFENARGKKPLAIEGIYDIYIYGKVSISSQALHYLAQKGIALHFFNHYGYYDGSFYPRESLHSGYLVVNQVEHYLDKDKRLELAKLFIIGGIKNMEWNLLKFKNKTKFSSYIEELNNCNKITEVMNVEGRVRTEYYRLWDETLPDDFKIVKRTRRPPKNEMNALISFLNSRLYPAIITELYNTQLTPTVSYLHEPHERRFSLALDLSEIFKPMIADRLANRLVKQGIIQKKHFRDDLNGVLLNKEGMKVVLEHFNKEMDKTVNHKKLKKNVSKRRLIRLEAYKLVKHLVGQKRYEPLVAWF | not soluble
MGSDKIHHHHHHMRLPLNQRVAILLHEGTTGTIGKTGLALLRYSEAPIVAVIDRNCAGQSLREITGIYRYVPIVKSVEAALEYKPQVLVIGIAPKGGGIPDDYWIELKTALQAGMSLVNGLHTPLANIPDLNALLQPGQLIWDVRKEPANLDVASGAARTLPCRRVLTVGTDMAIGKMSTSLELHWAAKLRGWRSKFLATGQTGVMLEGDGVALDAVRVDFAAGAVEQMVMRYGKNYDILHIEGQGSLLHPGSTATLPLIRGSQPTQLVLVHRAGQTHNGNNPHVPIPPLPEVIRLYETVASGGGAFGTVPVVGIALNTAHLDEYAAKEAIAHTIAETGLPCTDVVRFGADVLLDAVMQN | not soluble
MGSDKIHHHHHHMRLVLSGYYGFYNVGDEAILQSIIKALYEEEPTLELVVLSNDPDYTRKMYGVEAVNRWDIRAIYKEIKRSSGLISGGGSLLQDKTSIKSILYYTGIMRIARFLKKPYYIYAQGIGPITKRQNRLLVKWQVSKAEYISVRDEDSFLYLKEIGIKKDIELVPDPVLACQSEGMKSEWLQKHSIQGKVIAVSVRYWDAKEDYMKKLADTLKKFKRDGYHILFVPMHGPFDQNASRDIINLMGEEAHMLPYKLDIHEKISIFSECSLLIGMRLHALILSAVANIPMVGISYDPKVDSFLQQVNQPIIGNVDGDWTAETLYNVAMKQLEQKEYIQAKLEQRVEELREQISTASRYIISDLNSKEFKKENVEFHK | not soluble
MGSDKIHHHHHHMRNEYFFRVAGLTFSVILPGGLDAETLLPSFRPFRCGECPEGERIFRLLADTRPFADDGKRAELLDESSNDMGHVCLLRIPGGYRTEISYGPMDGGAHLMTVDTAFDDATAFLRVEDPSMGEVLSSMLRILYAQAALGRDAVSVHASCVSLKGRGYLFLGKSGTGKSTHSRQWLEAFPDCRLLNDDNPVLRIEDGMVSVYGTPWSGKTPCYRNERRPVAGIVRLQQSGTNRFTPLEGPEAFAALLPSCSAIRQDIRLHDELCRILIRVTEQVPVGRLECLPDREAAWLCFESLYVRDAKAREVRDGLPENGGL | not soluble
MGSDKIHHHHHHMRNINYFFAGSLLLLSGCQLIPNGDIPADDETNINPTLEVVSPTESDTREQVVEARDLWQRMQEGMHWEKPNEAYVAPFRQKLLANPRHLEQVFSRAEPFLYLIVDELERRGLPLELALLPAIESAFDADAISHASASGLWQLTPPMARYFGLKMNWWYDGRNDVVASTRAAADFLEYLYDRTGNNWHYAIAAYNSGEGRVLSAVRHNEKAGKPTDIWALKLPRETRNYVPNLLALADVVKHADKYGVSLPRIKNEPVVDVVEIGSQIELALAAELAGLSVSELKSLNPGFKQWATAPKGPHRLVVPVSNAPDFVVALAQTPQEQRVQWARYQIKRGDSLSVIARQFGTTPQVLKQVNQMKNNQLIAGKELVVPANGRTNASAQLASATPKQSYKVKSGDSLWKIAQAHGISVNDLKKWNSLGSKAIIRQGQLLTVWPGSKAVANTRSTTYQVKRGDSLSLIAQKFKVKISELMSWNKLSSSALQPGQTLTVMLQ | not soluble
MGSDKIHHHHHHMRQTFIARKISFISLIHFRDEYMSPQNNHLQRPPAAVLYADELAKLKQNDNAPCPPGWQLSLPAARAFILGDSAQNISRKVVISPSAVERMLVTLATGRGLMLVGEPGTAKSLLSELLATSISGDAGLTIQGGASTTEDQIKYGWNYALLINHGPSTEALVPAPLYQGMRDGKIVRFEEITRTPLEVQDCLLGMLSDRVMTVPELTGEASQLYAREGFNIIATANTRDRGVNEMSAALKRRFDFETVFPIMDFAQELELVASASARLLAHSGIPHKVPDAVLELLVRTFRDLRANGEKKTSMDTLTAIMSTAEAVNVAHAVGVRAWFLANRAGEPADLVDCIAGTIVKDNEEDRARLRRYFEQRVATHKEAHWQAYYQARHRLP | not soluble
MGSDKIHHHHHHMRRFFKNNLRNLSQNGETNSVRRCFALADVTVVINGRTLTVPDNLTVIEACEKAGIEIPALCHHPRLGESIGACRVCVVEVEGARNLQPACVTKVRDGMVIKTSSDRVKTARKFNLALLLSEHPNDCMTCEANGRCEFQDLIYKYDVEPIFGYGTKEGLVDRSSPAIVRDLSKCIKCQRCVRACSELQGMHIYSMVERGHRTYPGTPFDMPVYETDCIGCGQCAAFCPTGAIVENSAVKVVLEELEKKEKILVVQTAPSVRVAIGEEFGYAPGTISTGQMVAALRRLGFDYVFDTNFGADLTIMEEGSEFLERLEKGDLEDLPMFTSCCPGWVNLVEKVYPELRTRLSSAKSPQGMLSAMVKTYFAEKLGVKPEDIFHVSIMPCTAKKDEALRKQLMVNGVPAVDVVLTTRELGKLIRMKKIPFANLPEEEYDAPLGISTGAAALFGVTGGVMEAALRTAYELKTGKALPKIVFEEVRGLKGVREAEIDLDGKKIRIAVVHGTANVRNLVEKILRREVKYHFVEVMACPGGCIGGGGQPYSRDPEILRKRAEAIYTIDERMTLRKSHENPAIKKLYEEYLEHPLSHKAHELLHTYYEDRSRKKRLAVK | not soluble
MGSDKIHHHHHHMRRSSLKEPGPASAIRTENFTRGMGEVPAALGKVCRGGSHAKAHERGLIMLISQILDDAETIRVVARNGGKTRIINGARSVYSLAMEAARTGVGLATLIERKGLGETVDLDAAYKKGRLLSPINHPDPAHLHLTGTGLTHLGSAATRDSMHKKLSSADGEEQLTDSMKMFRMGLEGGKPAKGQVGVQPEWFYKGNGTMAVAPGAALLSPAFAKDAGEEPEIAGIYVIGDDGAPFRVGFTLSNEFSDHVTERVNYLFLAHSKLRNASFGPEILIGDLPSDIRGTSRIVRDGETLWEKPFLSGEANMSHTIANLEHHHFKYSAFRQPGDVHVHMFGTATLSFADGVKTEAGDVFEIEAGDFGLPLRNPLEIEKPVKVAVKAL | not soluble
MGSDKIHHHHHHMRSAAVDYAPSQAERRNFQRVRVKIYGRFMLEDRTEHPCQVVDMSPGNVAFRTDRIGMPGEKVIAYIDHIGRIEGVVTRTLQDGFAMTVIASDRKKDKLAAQLTWLANKHELDLPEDRRHERVAPRNPTSVLQLTDGRQYQCRIIDLSLSGAAIEIDVKPAIGVQVMLGTMRGQIVRHFEDGVAIEFAVIQRPETLDSEFNTPRA | not soluble
MGSDKIHHHHHHMRSIKNITLGLATVGVMSLSGCAGDYLDTIPSTSVSETTINTSLDNLYIALNGIHKEMVSQESGYQCLGGEPGFMMSRDAEADDMNWQTNTWMKAAYLGWQCNMNETNGYNYKFWQIYYQWILNANKILAGLEEVEITSQELFDQIKGEALCIRAWAHFNLVQLYAKRYEAGKDNTQDGIPYREKAVAEEQARNSVEDVYAKINNDLDEACILLSGIKVNDVNHYSEMVAWGLKARVALAMQDYNNAAVYAGKSVSLAEAGGHRLMTGSQLNCGFANITTDTKEAMYAAMTPDDKTVYFYSYYAYMSWNFNSSAIRQGVKCINVDAYETMSETDLRRAWWDPTGEASVPSSSYAKNAYQNRKFTARSTADAVGDVAFMRLAEMYLTQAEALARAGKDSEAQAVFTKFQITRDPSYVSKGNIGDALAEEIMNSRRVELWGEGFRFL | not soluble
MGSDKIHHHHHHMRSKGVMIPRIMSTQHPDNYSIPFFASSPILGGEDEITEAFYAFSVLGADEQMWDFEGKEVDEFVVKKLLERYPTFFKENILGEDLRLTPRVPNPSVEKAEAKLLLETLQGITRAADYARVFYLDNIAPIFEVILPMTTSLAEMLRVHELYRKIVSLSGEVIYDVTVKEWIGEFYPKEINVIPLFETKVALLKSGRIIREYIGRKRPEYLRVFFARSDPAMNYGLLSAVTYVKKALEQVGEVEEETSTPIYPIIGVGSPPFRGGMRPENVKKVLKEYPSVQTYTIQSSFKYDHPTKDVVKAVEIVKSKKREAPDPLDIPEFIQLYEIEYQKQLKILAPYIRNIVTRIPDRRKRKLHIGLFGYSRNVGGLSLPRVIKFTASLYSIGLPPELLGLNELSDNQLDSISEYYKNLYDDLEFAMRFFSFKVAERVGLRELSEKVKEFKPDIDDEYVREAELVFRGQGDVMKLAQIRGFLG | not soluble
MGSDKIHHHHHHMRTYRSFKMFTNSSQGVRKVRVGIAGLGTVGGSIYRILKERGNEIEKRIGEKFIISKVINRSPQKYELLGVPKEEIAFDFDDLILNSDVVVEAIGGTDVAVDLVRRALELGRIVVTPNKNLISEYGNEFSEYIKKRKLFFEASVGGGIPIISLLQDYLIFQKVTRIRGIMNGTTNYILTEMSKGRHFEEVLKEAQELGYAEADPTNDIEGYDVAYKVSVLAGVVTGRFPGINSVQFEGITRIDPEYLKEIVRSGKKLKLIGELDFSTNRYEVRLREVTPEDPFFNVDGVDNAIEVSTDLAGDFLLKGRGAGGYPTASAVIADLFRVAKYKVLGGAEKFSVVVMKFGGAAISDVEKLEKVAEKIIKRKKSGVKPVVVLSAMGDTTDHLIELAKTIDENPDPRELDLLLSTGEIQSVALMSIALRKRGYKAISFTGNQLKIITDKRYGSARIIDINTDIISRYLKQDFIPVVAGFQGITETGDITTLGRGGSDLTAIALAYSLGADLCELYKDVDGVYTADPRIVKDARVIKELSWEEMIELSRHGAQVLQARAAEFARKYGVKVLIKNAHKETRGTLIWEGTKVENPIVRAVTFEDGMAKVVLKDVPDKPGVAARIMRTLSQMGVNIDMIIQGMKSGEYNTVAFIVPESQLGKLDIDLLKTRSEAKEIIIEKGLAKVSIVGVNLTSTPEISATLFETLANEGINIDMISASSSRISVIIDGKYVEDAVKAIHSRFELDRE | not soluble
